We go through seven molecules from patent US20150299314A1 (TORAY INDUSTRIES, published 2015).

Assay [1] has as its target T1, polypeptide set forth in SEQ ID NO: 431 (human).
T1 peptide: VERVFQSNYFDSTHNH
Put plainly: ELISA on immobilized synthetic CAPRIN-1 peptides, culture supernatant. Background: An ELISA detects its analyte on a solid surface through an enzyme-linked reagent.

Assay [2] concerns the target T2, CAPRIN-1 protein expressed on the cell surface of human cancer cells (human, UniProt Q14444 2-709).
T2 construct: whole, on cells; Target of all flow cytometry and ADCC assays; the cell line is named under assay; also called human CAPRIN-1; cytoplasmic- and proliferation-associated protein 1
T2 sequence (looked up): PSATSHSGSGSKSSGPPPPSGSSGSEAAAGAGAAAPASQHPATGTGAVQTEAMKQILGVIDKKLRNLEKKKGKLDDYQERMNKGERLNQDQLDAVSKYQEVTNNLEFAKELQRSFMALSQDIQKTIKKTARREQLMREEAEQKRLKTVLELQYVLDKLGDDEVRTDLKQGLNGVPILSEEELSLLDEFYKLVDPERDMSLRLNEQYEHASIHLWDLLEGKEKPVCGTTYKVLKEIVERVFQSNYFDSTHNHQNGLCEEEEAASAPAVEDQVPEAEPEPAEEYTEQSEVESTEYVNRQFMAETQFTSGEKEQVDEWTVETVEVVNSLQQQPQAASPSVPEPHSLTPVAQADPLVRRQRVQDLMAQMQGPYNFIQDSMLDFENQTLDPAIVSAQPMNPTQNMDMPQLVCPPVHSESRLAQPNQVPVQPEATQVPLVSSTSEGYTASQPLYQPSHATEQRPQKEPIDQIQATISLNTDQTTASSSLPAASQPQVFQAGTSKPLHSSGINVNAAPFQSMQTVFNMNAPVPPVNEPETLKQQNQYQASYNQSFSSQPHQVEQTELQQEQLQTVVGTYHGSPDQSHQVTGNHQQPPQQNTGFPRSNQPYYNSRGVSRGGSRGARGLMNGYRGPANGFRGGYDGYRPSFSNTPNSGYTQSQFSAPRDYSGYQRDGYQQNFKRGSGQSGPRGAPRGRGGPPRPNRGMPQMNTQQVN
Put plainly: flow cytometry, TGBC14TKB cells, antibody 20 ug/mL, secondary antibody only as control. How it is done: (§1) A human gallbladder cancer cell line TGBC14TKB was investigated whether or not a CAPRIN-1 protein is expressed on the cell surface. 5×10⁵ cells of the gallbladder cancer cell line were centrifuged with a 1.5-mL micro centrifugation tube. The cells were subjected to reaction with each mouse anti-CAPRIN-1 antibody at a final concentration of 20 μg/mL, followed by being left to stand on ice for 1 hour. After washing with PBS, the cells were reacted with a 100-fold diluted Alexa488-labeled goat anti-mouse IgG antibody (manufactured by life technologies), followed by being left to stand on ice for […]. After washing with PBS, the fluorescence intensity was measured with FACS Calibur available from Becton, Dickinson and Company. As a negative control, only the secondary antibody was used in the reaction.
as §1, with “cell surface using mouse anti-CAPRIN-1 monoclonal antibodies #30 to #36.” for “cell surface.”, “of TGBC14TKB” for “of the gallbladder cancer cell line”, “each of” for “each”, “anti-CAPRIN-1 antibodies #30 to #36” for “anti-CAPRIN-1 antibody”, “Company. Separately, the cells were subjected to reaction with” for “Company. As a negative control,”, “antibody as a negative control.” for “antibody was used in the reaction.”
For orientation: A flow cytometer gives signals particle by particle.

Assay [3] deals with T3, polypeptide comprising the amino acid sequence set forth in SEQ ID NO: 269 (human).
T3 peptide: PPVNEPETLKQQNQYQAS
Put plainly: ELISA on immobilized synthetic CAPRIN-1 peptides, culture supernatant.

Assay [4] concerns the target T2, CAPRIN-1 protein expressed on the cell …. Put plainly: cell-based or functional assay.
The target of assay [5] is T4, peptide set forth in SEQ ID NO: 267 (human).
T4 peptide: QQPQAASPSVPE
Put plainly: ELISA on immobilized synthetic CAPRIN-1 peptides, culture supernatant.

The target in assay [6] is T5, polypeptide set forth in SEQ ID NO: 266 (human).
T5 construct: Identified from ELISA on 93 synthetic peptides of 12 to 16 amino acids of human CAPRIN-1
T5 peptide: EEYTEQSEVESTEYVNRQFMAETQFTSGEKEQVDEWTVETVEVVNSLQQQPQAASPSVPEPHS
The description is as above.

Assay [7] has as its target T2, CAPRIN-1 protein expressed on the cell …. Put plainly: flow cytometry, TGBC14TKB cells, culture supernatant, isotype control antibody as control. How it is done:
Subsequently, a gallbladder cell line TGBC14TKB, which was confirmed to express a CAPRIN-1 gene, was investigated for whether or not a CAPRIN-1 protein is expressed on the surfaces of these cells. 1×10⁶ cells of TGBC14TKB were centrifuged with a 1.5-mL micro centrifugation tube. To the cells was added the culture supernatant (100 μL) containing any of anti-CAPRIN-1 mouse monoclonal antibodies #1 to #22 reacting to cancer cell surface produced in Example 4 and anti-CAPRIN-1 mouse-chicken chimeric antibodies #1 to #3 produced in the above (2), followed by being left to stand on ice for 1 hour. After washing with PBS, the cells were suspended in a FITC-labeled goat anti-mouse IgG antibody (manufactured by life technologies) diluted by 500-fold with PBS containing 0.1% FBS, followed by being left to stand on ice for 1 hour. After washing with PBS, the fluorescence intensity was measured with FACS Calibur available from Becton, Dickinson and Company. Separately, as a control, the same procedure as in above was performed using an iso-type control antibody, instead of the culture supernatants containing the anti-CAPRIN-1 mouse monoclonal antibodies #1 to #22 and the mouse-chicken chimeric antibodies #1 to #3. As a result, the fluorescence intensity in the cells to which any of the monoclonal antibodies #1 to #22 and the mouse-chicken chimeric antibodies #1 to #3 was added was 20% or more higher than that in the control in every case. Specifically, in the case of using mouse-chicken chimeric antibody #1, the fluorescence intensity was enhanced by 200% or more. […] The rate of increase in the fluorescence intensity is represented by the rate of increase in the mean fluorescence intensity (MFI value) in each cell and is calculated by the following calculation formula: […]

Assay [8] concerns the target T6, polypeptide set forth in SEQ ID NO: 430 (human).
T6 peptide: ATQVPLVSSTSEGYTA
Put plainly: reactivity with the epitope peptide, method not detailed.

Assay [9] deals with T2, CAPRIN-1 protein expressed on the cell …. Put plainly: reactivity with gallbladder cancer cell lines, method not detailed.
Assay [10] addresses T7, human CAPRIN-1 recombinant protein (human, UniProt Q14444 1-709).
T7 construct: also called CAPRIN-1 protein; antigen protein (human CAPRIN-1 protein)
T7 sequence: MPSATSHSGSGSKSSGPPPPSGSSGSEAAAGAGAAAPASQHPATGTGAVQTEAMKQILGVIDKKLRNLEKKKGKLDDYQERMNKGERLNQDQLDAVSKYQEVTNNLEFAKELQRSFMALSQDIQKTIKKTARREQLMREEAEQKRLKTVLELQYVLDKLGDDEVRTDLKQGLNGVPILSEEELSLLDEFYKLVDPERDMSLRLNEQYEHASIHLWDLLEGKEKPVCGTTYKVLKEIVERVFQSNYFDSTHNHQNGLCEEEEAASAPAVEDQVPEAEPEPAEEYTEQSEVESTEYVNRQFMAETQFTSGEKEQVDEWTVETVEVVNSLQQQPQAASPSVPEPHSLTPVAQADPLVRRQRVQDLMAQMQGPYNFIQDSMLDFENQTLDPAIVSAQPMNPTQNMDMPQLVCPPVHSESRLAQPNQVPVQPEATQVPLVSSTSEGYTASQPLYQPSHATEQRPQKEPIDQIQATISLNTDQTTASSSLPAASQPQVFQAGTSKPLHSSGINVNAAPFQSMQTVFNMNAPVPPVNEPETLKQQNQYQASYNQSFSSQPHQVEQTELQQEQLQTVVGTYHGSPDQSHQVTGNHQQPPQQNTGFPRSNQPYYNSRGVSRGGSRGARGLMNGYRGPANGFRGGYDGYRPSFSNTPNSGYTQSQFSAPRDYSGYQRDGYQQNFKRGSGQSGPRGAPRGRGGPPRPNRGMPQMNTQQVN
Put plainly: reactivity with CAPRIN-1 protein, method not detailed.

B1: mouse anti-CAPRIN-1 antibody #34 (antibody, V domains shown)
VH: GAELVRPGTSVKVSCKASVYAFTNYLIEWVKQRPGQGLEWIGVINPKSGGTKYNEKFRGKATLTADKSSSTAYMQLSSLTSGDSAVYFCAITGTDYWGQGTTLTVSS
VL: QGTRCDIQMTQTTSSLSASLGDRVTISCSASQGINNYLNWYQQKPDGTVKLLIYYTSSLRSGVPSRFSGSGSGTDYSLTISNLEPEDVATYYCQQYSKLPRTFGGGTKLEIKR
notes: mouse hybridoma antibody; also called mouse anti-CAPRIN-1 monoclonal antibody #34; mouse anti-CAPRN-1 antibody #34
Regarding B1, the binding result in [1] is “binds”. Moreover, the “increase in fluorescence intensity over control” value in assay [2] was not below 35%.

B2: human-chicken chimeric antibody #3 (antibody, human IgG1, kappa, V domains shown)
VH: AVTLDESGGGLQTPGGALSLVCKASGFTFSGYDMLWVRQAPGKGLEWVAGIGSTGGGTDYGAAVKGRATISRDNGQSTVRLQLNNLRAEDTATYYCAKVAGGCNSGYCRDSPGSIDAWGHGTEVIVSA
VL: AVTQQPASVSANPGETVKITCSGGGSRNYYGWYQQKSPGSVPVTVIYYDDQRPSNIPSRFSGALSGSTSTLTITGVQADDEAVYFCGSADSNTYEGSFGAGTTLTVLT
notes: Produced 'similarly' to human-chicken chimeric antibody #1 from chicken monoclonal antibody #3; also called human-chicken chimeric monoclonal antibody #3
Regarding B2, in assay [3], the binding result was “binds”. Also, in [4], the “cytotoxicity (ADCC, 51Cr release) on TGBC14TKB, human NK cells” value (from here on “cytotoxicity (ADCC, 51Cr release)”) was not below 15%.

B3: mouse monoclonal antibody #4 (antibody, V domains shown)
VH: GAELVRSGASVKMSCKASGYSFTDYNMYWVKQTPGQGLEWIGYIYPGNGGTNYNQKFKGKATLTADTSSSTAYMQISSLTSEDSAVYFCARDYDDGGYAMDYWGQGTTVTVSS
VL: DIQMTQSPASLSASVGETVTITCRASGNIHNYLTWYQQKQGKSPQLLVYNAKTLADGVPSRFSGSGSGTQYSLKINRLQPEDFGSYYCQHFWNIPWTFGGGTKLNSR
notes: mouse hybridoma antibody; also called anti-CAPRIN-1 mouse monoclonal antibody #4; anti-CAPRIN-1 monoclonal antibody #4
Turning to B3, the binding result in assay [5] and in [6] was “binds” each time. In addition, in assay [4], the “cytotoxicity (ADCC, 51Cr release)” value is not below 15%. For the same molecule, in assay [7], the “rate of increase in mean fluorescence intensity over control” value is not below 20%.

B4: human-chicken chimeric antibody #1 (antibody, human IgG1, kappa, V domains shown)
VH: AVTLDESGGGLQMSRGGLSLVCKASGFDFSSYQMNWIRQAPGKGLEFVAAINKFGNSTGHGAAVKGRVTISRDNGQSTVRLQLNNLRAEDTAIYFCTKHAYGYCGSGTWCAAGEIDAWGHGTEVIVSS
VL: QAASTQPSSVSANPGETVEITCSGGGSYSYGWFQQKSPGSAPVTVIYYNNKRPSDIPSRFSGSKSGSTGTLTITGVQADDEAVYYCGSGDSTDTAVFGAGTTLTVLG
notes: also called human-chicken chimeric monoclonal antibody #1
Regarding B4, the binding result in assay [5] and in assay [6] was “binds” throughout. Further, the “cytotoxicity (ADCC, 51Cr release)” value in assay [4] is 20%.

B5: humanized anti-CAPRIN-1 antibody #2 (antibody, human IgG1, V domains shown)
VH: EVQLVESGGGLVQPGGSLRLSCAASGFSFSGSYYMSWVRQAPGKGLEWIAYIYIGDGVTAYANWAKGRFTISKDNSKNTLYLQMNSLRAEDTAVYFCARGNKLWGPGTLVTVSS
VL: DIQMTQSPSSLSASVGDRVTIKCQASQSISSYLAWYQQKPGKAPKRLIYDASNLDSGVPSRFSGSGSGTDFTFTISSLQPEDIATYYCQCTAVSSATIYGNAFGGGTKVEIK
Take B5: the binding result in [8], in assay [9] and in [10] was “binds” each time.

B6: humanized anti-CAPRIN-1 antibody #3 (antibody, human IgG1, V domains shown)
VH: EVQLVESGGGLVQPGGSLRLSCAASGFSFSGSYYMSWVRQAPGKGLEWIAYIYIGDGVTAYANWAKGRFTISRDNSKNTLYLQMNSLRAEDTAVYYCARGNKLWGPGTLVTVSS
VL: DIQMTQSPSSLSASVGDRVTIKCQASQSISSYLAWYQQKPGKAPKRLIYDASNLDSGVPSRFSGSGSGTDFTFTISSLQPEDIATYYCQCTAVSSATIYGNAFGGGTKVEIK
For B6, the binding result in assay [8], in [9] and in assay [10] was “binds” throughout.

B7: humanized anti-CAPRIN-1 antibody #1 (antibody, human IgG1, V domains shown)
VH: QVQLVESGGGLVKPGGSLRLSCAASGFSFSGSYYMSWVRQAPGKGLEWIAYIYIGDGVTAYANWAKGRFTISRDNAKNSLYLQMNSLRAEDTAVYFCARGNRLWGQGTLVTVSS
VL: DIQMTQSPSSLSAAVGDRVTIKCQASQSISSYLAWYQQKPGKPPKRLIYDASNLDSGVPSRFSGSGSGTDFTFTISSLQPEDIATYYCQCTAVSSATIYGNAFGGGTKVEIK
B7: the binding result in [8], in assay [9] and in assay [10] was “binds” throughout.
